The data set has as its system HA-GβL.

Data on one substance can be found in patent US20040253677.

As to myc-mTOR (full-length), the “in vitro mTOR kinase activity (autophosphorylation and activity towards GST-S6K1)” value was “GβL-mediated stimulation of the mTOR kinase activity correlates with the amount of GβL bound to mTOR and is independent of raptor”.
